The values that follow come from paper PMC3212511.

Assay [1] addresses human desmin (assembled into filaments in vitro) (human) (UniProt P17661). As to the kind of experiment: low-speed sedimentation assay; desmin alone assembled at 22°C; 2,500 g, 10 min, 20°C; pellets only filaments associated with each other (filament-filament interactions); SDS-PAGE densitometry.
For assay [2] the target is unchanged. Description: low-speed sedimentation assay; desmin alone assembled at 37°C; 2,500 g, 10 min, 20°C; pellets only filaments associated with each other (filament-filament interactions); SDS-PAGE densitometry.
Assay [3] shares this target. As to the kind of experiment: low-speed sedimentation assay; desmin alone assembled at 44°C; 2,500 g, 10 min, 20°C; pellets only filaments associated with each other (filament-filament interactions); SDS-PAGE densitometry.

Take “human desmin (assembled into filaments in vitro) (from UniProt P17661 1-470) (natural protein)”: the % of desmin in the low-speed pellet (filament-filament interactions) amounted to 24% in assay [1], 45% in assay [2] and 61% in assay [3].
